Values belong to the substance of their own block, whether it stands above or below them.
How the values were obtained:
[1] = molecular target: cation-independent mannose-6-phosphate/IGF-II receptor on GM4668 human skin fibroblasts (human) (UniProt P11717); assay: cell-based or functional assay
[2] = molecular target: cation-independent mannose-6-phosphate/IGF-II receptor on GM4668 human skin fibroblasts (human) (UniProt P11717)
[3] = molecular target: cation-independent mannose-6-phosphate/IGF-II receptor on GM4668 human skin fibroblasts (human) (UniProt P11717); remark: listed apart in the source

UniProt P11717, sequence (P11717 41-2491): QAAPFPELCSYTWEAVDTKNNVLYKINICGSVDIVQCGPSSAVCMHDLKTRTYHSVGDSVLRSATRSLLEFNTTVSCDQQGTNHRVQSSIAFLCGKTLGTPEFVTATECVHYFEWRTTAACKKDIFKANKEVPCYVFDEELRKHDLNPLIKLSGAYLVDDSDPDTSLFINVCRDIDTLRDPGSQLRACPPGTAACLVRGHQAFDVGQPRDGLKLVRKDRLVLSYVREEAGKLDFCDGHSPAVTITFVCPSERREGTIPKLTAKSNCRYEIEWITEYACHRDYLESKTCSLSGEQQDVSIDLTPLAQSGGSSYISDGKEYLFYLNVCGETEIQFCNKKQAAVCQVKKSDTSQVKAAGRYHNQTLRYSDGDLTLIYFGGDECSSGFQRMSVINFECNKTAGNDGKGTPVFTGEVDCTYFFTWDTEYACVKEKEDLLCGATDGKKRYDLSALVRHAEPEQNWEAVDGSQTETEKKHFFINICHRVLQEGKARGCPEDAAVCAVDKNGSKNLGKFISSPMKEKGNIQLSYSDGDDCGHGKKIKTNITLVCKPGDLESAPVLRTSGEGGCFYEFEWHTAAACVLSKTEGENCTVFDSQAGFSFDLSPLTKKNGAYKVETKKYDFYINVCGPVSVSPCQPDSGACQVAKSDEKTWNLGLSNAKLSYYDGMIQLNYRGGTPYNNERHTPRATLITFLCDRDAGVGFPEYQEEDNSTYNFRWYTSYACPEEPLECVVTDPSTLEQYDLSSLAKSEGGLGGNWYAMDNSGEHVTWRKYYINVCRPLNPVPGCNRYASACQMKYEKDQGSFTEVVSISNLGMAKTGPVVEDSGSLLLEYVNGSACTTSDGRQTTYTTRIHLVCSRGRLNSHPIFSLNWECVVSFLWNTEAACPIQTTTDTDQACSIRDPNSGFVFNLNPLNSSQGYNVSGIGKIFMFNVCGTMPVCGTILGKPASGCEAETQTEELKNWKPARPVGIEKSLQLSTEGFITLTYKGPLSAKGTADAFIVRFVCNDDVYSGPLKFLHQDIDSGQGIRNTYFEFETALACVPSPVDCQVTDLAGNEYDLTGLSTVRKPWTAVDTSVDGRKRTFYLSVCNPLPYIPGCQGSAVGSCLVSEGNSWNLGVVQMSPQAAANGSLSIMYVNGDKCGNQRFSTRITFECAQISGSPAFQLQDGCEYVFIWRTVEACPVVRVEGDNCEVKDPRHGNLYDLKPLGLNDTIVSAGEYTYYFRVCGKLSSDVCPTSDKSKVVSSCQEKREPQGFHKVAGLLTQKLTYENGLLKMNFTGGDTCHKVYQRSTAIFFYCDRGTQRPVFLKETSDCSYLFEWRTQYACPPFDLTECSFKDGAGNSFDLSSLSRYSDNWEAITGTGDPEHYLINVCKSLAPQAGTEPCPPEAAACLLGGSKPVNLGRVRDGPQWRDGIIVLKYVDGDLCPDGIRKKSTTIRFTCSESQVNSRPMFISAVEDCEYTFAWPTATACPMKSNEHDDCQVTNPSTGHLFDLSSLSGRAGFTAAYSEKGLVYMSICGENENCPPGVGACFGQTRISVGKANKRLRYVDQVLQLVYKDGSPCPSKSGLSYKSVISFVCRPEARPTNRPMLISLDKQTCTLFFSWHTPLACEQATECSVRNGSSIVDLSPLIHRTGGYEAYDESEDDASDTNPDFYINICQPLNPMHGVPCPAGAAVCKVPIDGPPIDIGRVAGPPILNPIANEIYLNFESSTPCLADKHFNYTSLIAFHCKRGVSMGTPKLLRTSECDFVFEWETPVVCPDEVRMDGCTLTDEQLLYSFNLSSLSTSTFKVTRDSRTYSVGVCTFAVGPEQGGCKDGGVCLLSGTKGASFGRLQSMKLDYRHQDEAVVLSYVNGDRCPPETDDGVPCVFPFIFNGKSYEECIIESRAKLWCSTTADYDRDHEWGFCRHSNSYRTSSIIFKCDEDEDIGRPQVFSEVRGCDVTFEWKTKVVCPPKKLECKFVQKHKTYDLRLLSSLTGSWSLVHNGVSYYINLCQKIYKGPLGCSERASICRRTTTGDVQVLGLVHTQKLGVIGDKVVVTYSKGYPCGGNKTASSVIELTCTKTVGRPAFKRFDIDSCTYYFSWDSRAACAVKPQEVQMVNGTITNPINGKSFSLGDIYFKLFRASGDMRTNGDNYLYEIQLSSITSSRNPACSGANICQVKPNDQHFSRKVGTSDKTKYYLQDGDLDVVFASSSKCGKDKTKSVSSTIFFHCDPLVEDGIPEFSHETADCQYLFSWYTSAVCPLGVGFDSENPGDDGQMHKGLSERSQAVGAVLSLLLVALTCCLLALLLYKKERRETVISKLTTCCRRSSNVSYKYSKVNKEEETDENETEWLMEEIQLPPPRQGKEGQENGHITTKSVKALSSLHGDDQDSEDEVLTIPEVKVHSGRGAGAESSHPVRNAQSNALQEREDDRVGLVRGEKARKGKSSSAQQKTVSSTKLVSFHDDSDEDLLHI

Substance: CHO GUSΔC18-GILTΔ1-7 (from UniProt P08236 23-633)
- % IGF-II +M6P inhibition of uptake [1]: 100%
- +IGF-II (units/mg): uptake with IGF-II, 22.5 hours [1]: 473 units/mg
- +IGF-II (units/mg): uptake with excess IGF-II, 18 hours [1]: 258 units/mg
- +IGF-II +M6P (units/mg): uptake with both inhibitors, 22.5 hours [1]: 0 units/mg
- +IGF-II Uptake (units/mg), 21 hours [1]: 1010 units/mg
- +M6P (units/mg): uptake with 8 mM M6P, 22.5 hours [1]: 639 units/mg
- +M6P (units/mg): uptake with excess M6P, 18 hours [1]: 412 units/mg
- Uptake (units/mg), GM4668 fibroblasts, 18 hours [1]: 704 units/mg
- Uptake (units/mg), MPS VII fibroblasts, 21 hours [1]: 4080 units/mg
- Uptake (units/mg), fibroblasts, 22.5 hours [1]: 1580 units/mg

Substance: GUS (enzyme)
- cell-associated GUS activity in GM4668 fibroblast lysate after about 18 h uptake, 150 U enzyme per well (untagged comparison) [2]: 4.5 U/mg lysate
- cell-associated GUS activity in GM4668 fibroblast lysate after uptake of about 350-600 units of ConA-purified enzyme (untagged comparison) (Units/mg protein) [3]: 3.38

Substance: HEK GUS-GILT (from UniProt P08236 23-651)
- Uptake (units/mg), MPS VII fibroblasts, 21 hours [1]: 1430 units/mg

Substance: CHO GUS-GILTΔ1-7 (from UniProt P08236 23-651)
- +IGF-II (units/mg): uptake with excess IGF-II, 18 hours [1]: 84 units/mg
- +M6P (units/mg): uptake with excess M6P, 18 hours [1]: 223 units/mg
- Uptake (units/mg), GM4668 fibroblasts, 18 hours [1]: 310 units/mg

Substance: GILT-GUS with Δ1-7 and Y27L mutations in the IGF-II portion, Leishmania-expressed (from UniProt P08236 23-651)
- cell-associated GUS activity in GM4668 fibroblasts, fold over unmodified GUS [1]: 5 fold

Substance: HEK GUSΔC18-GILTΔ1-7 (from UniProt P08236 23-633)
- +IGF-II Uptake (units/mg), 21 hours [1]: 1210 units/mg
- Uptake (units/mg), MPS VII fibroblasts, 21 hours [1]: 5190 units/mg

Substance: HEK GUS-GILTF19SE12K (from UniProt P08236 23-651)
- % IGF-II +M6P inhibition of uptake [1]: 100%
- +IGF-II (units/mg): uptake with IGF-II, 22.5 hours [1]: 22 units/mg
- +IGF-II +M6P (units/mg): uptake with both inhibitors, 22.5 hours [1]: 0 units/mg
- +IGF-II Uptake (units/mg), 21 hours [1]: 388 units/mg
- +M6P (units/mg): uptake with 8 mM M6P, 22.5 hours [1]: 846 units/mg
- Uptake (units/mg), MPS VII fibroblasts, 21 hours [1]: 4230 units/mg
- Uptake (units/mg), fibroblasts, 22.5 hours [1]: 1230 units/mg

Substance: CHO GUS (from UniProt P08236 23-651) (enzyme)
- +IGF-II (units/mg): uptake with excess IGF-II, 18 hours [1]: 336 units/mg
- +M6P (units/mg): uptake with excess M6P, 18 hours [1]: 1 units/mg
- Uptake (units/mg), GM4668 fibroblasts, 18 hours [1]: 352 units/mg

The remaining lines, values ahead:

- % IGF-II +M6P inhibition of uptake [1]: 99.1%
- +IGF-II (units/mg): uptake with IGF-II, 22.5 hours [1]: 217 units/mg
- +IGF-II +M6P (units/mg): uptake with both inhibitors, 22.5 hours [1]: 15 units/mg
- +IGF-II Uptake (units/mg), 21 hours [1]: 439 units/mg
- +M6P (units/mg): uptake with 8 mM M6P, 22.5 hours [1]: 952 units/mg
- Uptake (units/mg), MPS VII fibroblasts, 21 hours [1]: 4730 units/mg
- Uptake (units/mg), fibroblasts, 22.5 hours [1]: 1590 units/mg
Substance: HEK GUS-GILTF19S (from UniProt P08236 23-651)

- cell-associated GUS activity in GM4668 fibroblast lysate after about 18 h uptake, 150 U enzyme per well, no competitor [2]: 24.1 U/mg lysate
- cell-associated GUS activity in GM4668 fibroblast lysate after uptake of about 350-600 units of ConA-purified enzyme in the presence of excess IGF-II as competitor (Units/mg protein) [3]: 7.93
- cell-associated GUS activity in GM4668 fibroblast lysate after uptake of about 350-600 units of ConA-purified enzyme, no competitor (Units/mg protein) [3]: 55.1
- cell-associated GILT-GUS in GM4668 fibroblasts, no IGF-II (units/mg lysate) [1]: > 24
- cell-associated GILT-GUS in GM4668 fibroblasts, with excess IGF-II [1]: 5.4 U
- cell-associated GUS activity in GM4668 fibroblasts, fold over unmodified GUS [1]: 10 fold
Substance: GUS-IGF-II fusion protein (GUS-GILT), Leishmania-expressed

- Uptake (units/mg), MPS VII fibroblasts, 21 hours [1]: 1510 units/mg
Substance: HEK GUS-GILTY27L (from UniProt P08236 23-651)

- cell-associated GUS activity in GM4668 fibroblast lysate after uptake of about 350-600 units of ConA-purified enzyme in the presence of excess IGF-II as competitor (Units/mg protein) [3]: 13.5
- cell-associated GUS activity in GM4668 fibroblast lysate after uptake of about 350-600 units of ConA-purified enzyme, no competitor (Units/mg protein) [3]: 245
Substance: GUS-GILTΔ1-7 (from UniProt P08236)
